Experimental data published in US20240317859A1 (FOUNDATION FOR BIOMEDICAL RESEARCH AND INNOVATION AT KOBE, published 2024).

B1: HM297-G5 (antibody, human IgG1, V domains shown)
VH: QVQLVQSGPEVKKPGASVKIPCKASGYTFTDYNVDWVRQVPGQGLEWIGDIDPNNGGTIYNQKFKDKATLTVDKSTRTAYMELRSLRSDDTAVYYCARWRGAMDYWGQGTLVTVSS
VL: DIQMTQSPSSLSASVGDRVTITCRASQDIDNYLKWYQQKPDGTVKLLIYDTSRLHSGVPSRFSGSGSGTDYTLTISSLKQEDFATYYCQQGYTLPWTFGQGTKLEIK
notes: also called humanized HM297, VH ver.G / VL ver.5
B2: HM297-F6 (antibody, human IgG1, V domains shown)
VH: QVQLVQSGPEVKKPGASVKIPCKASGYTFTDYNVDWVRQSHGKSLEWIGDIDPNNGGTIYNQKFKDRVTMTVDKSTRTAYMELRSLRSDDTAVYYCARWRGAMDYWGQGTLVTVSS
VL: DIQMTQSPSSLSASVGDRVTITCRASQDIDNYLKWYQQKPGKAPKLLIYDTSRLHSGVPSRFSGSGSGTDYTLTISSLQPEDFATYYCQQGYTLPWTFGQGTKLEIK
notes: also called humanized HM297, VH ver.F / VL ver.6
B3: humanized HM297-H5-IgG1-K322A (antibody, V domains shown)
VH: QVQLVQSGPEVKKPGASVKIPCKASGYTFTDYNVDWVRQVPGQGLEWMGDIDPNNGGTIYNQKFKDRVTMTVDKSTRTAYMELRSLRSDDTAVYYCARWRGAMDYWGQGTLVTVSS
VL: DIQMTQSPSSLSASVGDRVTITCRASQDIDNYLKWYQQKPDGTVKLLIYDTSRLHSGVPSRFSGSGSGTDYTLTISSLKQEDFATYYCQQGYTLPWTFGQGTKLEIKR
B4: HM297-I5 (antibody, human IgG1, V domains shown)
VH: QVQLVQSGPEVKKPGASVKVVCKASGYTFTDYNVDWVRQVPGQGLEWMGDIDPNNGGTIYNQKFKDRVTMTVDTSTRTAYMELRSLRSDDTAVYYCARWRGAMDYWGQGTLVTVSS
VL: DIQMTQSPSSLSASVGDRVTITCRASQDIDNYLKWYQQKPDGTVKLLIYDTSRLHSGVPSRFSGSGSGTDYTLTISSLKQEDFATYYCQQGYTLPWTFGQGTKLEIK
notes: also called humanized HM297, VH ver.I / VL ver.5
B5: HM297-G6 (antibody, human IgG1, V domains shown)
VH: QVQLVQSGPEVKKPGASVKIPCKASGYTFTDYNVDWVRQVPGQGLEWIGDIDPNNGGTIYNQKFKDKATLTVDKSTRTAYMELRSLRSDDTAVYYCARWRGAMDYWGQGTLVTVSS
VL: DIQMTQSPSSLSASVGDRVTITCRASQDIDNYLKWYQQKPGKAPKLLIYDTSRLHSGVPSRFSGSGSGTDYTLTISSLQPEDFATYYCQQGYTLPWTFGQGTKLEIK
notes: also called humanized HM297, VH ver.G / VL ver.6
B6: HM297-E6 (antibody, human IgG1, V domains shown)
VH: QVQLVQSGPELVKPGASVKIPCKASGYTFTDYNVDWVRQSHGKSLEWIGDIDPNNGGTIYNQKFKDKATLTVDKSTRTAYMELRSLRSDDTAVYYCARWRGAMDYWGQGTLVTVSS
VL: DIQMTQSPSSLSASVGDRVTITCRASQDIDNYLKWYQQKPGKAPKLLIYDTSRLHSGVPSRFSGSGSGTDYTLTISSLQPEDFATYYCQQGYTLPWTFGQGTKLEIK
notes: also called humanized HM297, VH ver.E / VL ver.6
B7: HM297-H4 (antibody, human IgG1, V domains shown)
VH: QVQLVQSGPEVKKPGASVKIPCKASGYTFTDYNVDWVRQVPGQGLEWMGDIDPNNGGTIYNQKFKDRVTMTVDKSTRTAYMELRSLRSDDTAVYYCARWRGAMDYWGQGTLVTVSS
VL: DIQMTQTTSSLSASVGDRVTITCRASQDIDNYLKWYQQKPDGTVKLLIYDTSRLHSGVPSRFSGSGSGTDYTLTISSLKQEDFATYYCQQGYTLPWTFGQGTKLEIK
notes: also called humanized HM297, VH ver.H / VL ver.4
B8: HM297-F5 (antibody, human IgG1, V domains shown)
VH: QVQLVQSGPEVKKPGASVKIPCKASGYTFTDYNVDWVRQSHGKSLEWIGDIDPNNGGTIYNQKFKDRVTMTVDKSTRTAYMELRSLRSDDTAVYYCARWRGAMDYWGQGTLVTVSS
VL: DIQMTQSPSSLSASVGDRVTITCRASQDIDNYLKWYQQKPDGTVKLLIYDTSRLHSGVPSRFSGSGSGTDYTLTISSLKQEDFATYYCQQGYTLPWTFGQGTKLEIK
notes: also called humanized HM297, VH ver.F / VL ver.5
B9: HM297-E5 (antibody, human IgG1, V domains shown)
VH: QVQLVQSGPELVKPGASVKIPCKASGYTFTDYNVDWVRQSHGKSLEWIGDIDPNNGGTIYNQKFKDKATLTVDKSTRTAYMELRSLRSDDTAVYYCARWRGAMDYWGQGTLVTVSS
VL: DIQMTQSPSSLSASVGDRVTITCRASQDIDNYLKWYQQKPDGTVKLLIYDTSRLHSGVPSRFSGSGSGTDYTLTISSLKQEDFATYYCQQGYTLPWTFGQGTKLEIK
notes: also called humanized HM297, VH ver.E / VL ver.5
B10: HM297-E4 (antibody, human IgG1, V domains shown)
VH: QVQLVQSGPELVKPGASVKIPCKASGYTFTDYNVDWVRQSHGKSLEWIGDIDPNNGGTIYNQKFKDKATLTVDKSTRTAYMELRSLRSDDTAVYYCARWRGAMDYWGQGTLVTVSS
VL: DIQMTQTTSSLSASVGDRVTITCRASQDIDNYLKWYQQKPDGTVKLLIYDTSRLHSGVPSRFSGSGSGTDYTLTISSLKQEDFATYYCQQGYTLPWTFGQGTKLEIK
notes: also called humanized HM297, VH ver.E / VL ver.4
B11: HM297-F4 (antibody, human IgG1, V domains shown)
VH: QVQLVQSGPEVKKPGASVKIPCKASGYTFTDYNVDWVRQSHGKSLEWIGDIDPNNGGTIYNQKFKDRVTMTVDKSTRTAYMELRSLRSDDTAVYYCARWRGAMDYWGQGTLVTVSS
VL: DIQMTQTTSSLSASVGDRVTITCRASQDIDNYLKWYQQKPDGTVKLLIYDTSRLHSGVPSRFSGSGSGTDYTLTISSLKQEDFATYYCQQGYTLPWTFGQGTKLEIK
notes: also called humanized HM297, VH ver.F / VL ver.4
B12: HM297-H6 (antibody, human IgG1, V domains shown)
VH: QVQLVQSGPEVKKPGASVKIPCKASGYTFTDYNVDWVRQVPGQGLEWMGDIDPNNGGTIYNQKFKDRVTMTVDKSTRTAYMELRSLRSDDTAVYYCARWRGAMDYWGQGTLVTVSS
VL: DIQMTQSPSSLSASVGDRVTITCRASQDIDNYLKWYQQKPGKAPKLLIYDTSRLHSGVPSRFSGSGSGTDYTLTISSLQPEDFATYYCQQGYTLPWTFGQGTKLEIK
notes: also called humanized HM297, VH ver.H / VL ver.6
B13: HM297-G4 (antibody, human IgG1, V domains shown)
VH: QVQLVQSGPEVKKPGASVKIPCKASGYTFTDYNVDWVRQVPGQGLEWIGDIDPNNGGTIYNQKFKDKATLTVDKSTRTAYMELRSLRSDDTAVYYCARWRGAMDYWGQGTLVTVSS
VL: DIQMTQTTSSLSASVGDRVTITCRASQDIDNYLKWYQQKPDGTVKLLIYDTSRLHSGVPSRFSGSGSGTDYTLTISSLKQEDFATYYCQQGYTLPWTFGQGTKLEIK
notes: also called humanized HM297, VH ver.G / VL ver.4
B14: HM297-I4 (antibody, human IgG1, V domains shown)
VH: QVQLVQSGPEVKKPGASVKVVCKASGYTFTDYNVDWVRQVPGQGLEWMGDIDPNNGGTIYNQKFKDRVTMTVDTSTRTAYMELRSLRSDDTAVYYCARWRGAMDYWGQGTLVTVSS
VL: DIQMTQTTSSLSASVGDRVTITCRASQDIDNYLKWYQQKPDGTVKLLIYDTSRLHSGVPSRFSGSGSGTDYTLTISSLKQEDFATYYCQQGYTLPWTFGQGTKLEIK
notes: also called humanized HM297, VH ver.I / VL ver.4
B15: chimeric HM297-IgG1-K322A (antibody)
heavy: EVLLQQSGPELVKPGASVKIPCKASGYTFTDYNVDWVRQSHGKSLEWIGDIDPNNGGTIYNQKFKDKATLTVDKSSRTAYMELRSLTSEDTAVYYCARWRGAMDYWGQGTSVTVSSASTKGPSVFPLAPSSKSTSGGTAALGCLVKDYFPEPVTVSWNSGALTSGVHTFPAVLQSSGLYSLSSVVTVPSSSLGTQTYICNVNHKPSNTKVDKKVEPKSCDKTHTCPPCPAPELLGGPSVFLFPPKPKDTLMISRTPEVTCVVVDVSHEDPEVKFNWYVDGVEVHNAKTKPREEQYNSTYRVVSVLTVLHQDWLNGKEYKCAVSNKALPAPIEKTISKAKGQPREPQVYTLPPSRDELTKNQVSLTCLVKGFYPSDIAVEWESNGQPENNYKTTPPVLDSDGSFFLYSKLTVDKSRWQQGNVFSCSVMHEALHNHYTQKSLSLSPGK
light: DVQMTQTTSSLSASLGDRVTISCRASQDIDNYLKWYQQKPDGTVKLLIYDTSRLHSGVPSRFSGSGSGTDYSLTISNLKQEDIATYFCQQGYTLPWTFGGGTRLEIKRTVAAPSVFIFPPSDEQLKSGTASVVCLLNNFYPREAKVQWKVDNALQSGNSQESVTEQDSKDSTYSLSSTLTLSKADYEKHKVYACEVTHQGLSSPVTKSFNRGEC
notes: Mouse Fab region with the Fc region of human IgG1-K322A

What was measured:
[1] = molecular target: human PD-1 (wild-type), expressed on cells (human, UniProt Q15116 25-288); assay: cell-based or functional assay
[2] = molecular target: Human PD-1/PDCD1 Protein (PD-1) (human, UniProt Q15116 25-167, limits assumed); assay: SPR, Biacore 8K; PD-1 captured by anti-His antibody, antibody in flow
Procedure: The binding affinity of each antibody to human PD-1 was measured with Biacore 8K (Cytiva). Briefly, anti-His Tag antibody was immobilized by amine coupling using Amine Coupling Kit and His Capture Kit, onto 8 channels of a sensor chip (provided with 16 flow cells; one channel consisting of two flow cells) which had carboxymethyl dextran immobilized on a gold film. The immobilization was performed by feeding an activation solution (NHS and EDC mixed in equal amounts) at a flow rate of 10 μl/min for 7 minutes, an immobilization solution at a flow rate of 5 μl/min for 7 minutes, and 1 M ethanolamine hydrochloride-NaOH (pH 8.5) at a flow rate of 10 μl/min for 7 minutes. The buffer used at the time of immobilization was 1×HBS-EP+ Buffer. After the immobilization and before applying a sample, Human PD-1/PDCD1 Protein (PD-1) adjusted to 1 μg/ml with 1×HBS-EP+ Buffer was fed to one of the two flow cells of each channel in an amount of 20 μl at a flow rate of 10 μl/min to thereby capture PD-1 on the sensor chip. As regards the other flow cell, 1×HBS-EP+ Buffer was fed in the same manner to prepare a control flow cell. Each antibody was adjusted to 16 nM with 1×HBS-EP+ Buffer, and then subjected to 2-fold 7-step serial dilution using 1×HBS-EP+ Buffer. The resultant sample solution (30 μl) was fed to each flow cell at a flow rate of 10 μl/min and the response was measured. After subtracting the response of control flow cell from the response of the flow cell which was allowed to capture the ligand, KD value was calculated by curve fitting using Biacore 8K Evaluation Software.

Sequence of Human PD-1/PDCD1 Protein (PD-1) (Q15116 25-167 limits assumed): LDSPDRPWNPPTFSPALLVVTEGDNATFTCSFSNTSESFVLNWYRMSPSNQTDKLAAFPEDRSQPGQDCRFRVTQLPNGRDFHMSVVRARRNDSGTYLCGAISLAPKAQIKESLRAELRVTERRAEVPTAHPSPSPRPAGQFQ
Sequence of human PD-1 (wild-type), expressed on cells (Q15116 25-288 limits assumed): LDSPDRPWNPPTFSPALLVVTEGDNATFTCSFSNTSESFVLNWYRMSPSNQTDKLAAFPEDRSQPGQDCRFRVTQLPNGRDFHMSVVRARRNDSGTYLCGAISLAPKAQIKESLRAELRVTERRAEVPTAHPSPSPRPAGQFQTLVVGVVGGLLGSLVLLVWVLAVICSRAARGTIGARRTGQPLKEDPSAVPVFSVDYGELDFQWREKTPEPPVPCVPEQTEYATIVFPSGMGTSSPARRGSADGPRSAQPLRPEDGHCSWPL

Cell-cell contact assay [1] | Kd [2] | Binder
102 ng/mL | 0.232 nM | B1
150 ng/mL | 4.83 nM | B2
96.4 ng/mL | 0.563 nM | B3
94.9 ng/mL | 2.2 nM | B4
59.7 ng/mL | 1.89 nM | B5
65.4 ng/mL | 12.6 nM | B6
185 ng/mL | 0.221 nM | B7
98.9 ng/mL | 2.35 nM | B8
78.6 ng/mL | 50.2 nM | B9
100 ng/mL | 0.129 nM | B10
92.3 ng/mL | 24.1 nM | B11
141 ng/mL | 1.86 nM | B12
55.4 ng/mL | 0.451 nM | B13
65.6 ng/mL | 4.84 nM | B14
78.3 ng/mL | 0.0493 nM | B15
